From article PMC2820103 (Biochemistry, 2009)

Target: the molecule itself
Assay: SEC

B1: Benzylsuccinate synthase α subunit (BSS-α) with a C-terminal His6 tag (natural protein, Thauera aromatica T1, UniProt O68395 1-864, looked up)
chain: MNDIVSAKVLEYKGKKLNFTPEDPAEETIPADELHEHLQKPSTARTKRLKERCRWKHASAGEFIEKSVTAGIERMRYLTEAHKASEGKPEAIRRALGLANVLNKSTLVLQEDEFIVGYHAEDPNMFPLYPELSHMAVQDYLRSDYSPQPADEAAAINEYWKPHSLQSKCQPYFDPADLGRMYQVSSMEAPSFASGYNSIVPPYETVLEDGLLARIKLAEKHIAEAQADMSTFPWNGTKGLDNIAKIDNWKAMVIACKAVISWARRQGRLCKIVAENFETDPKRQAELLEIADICQRIPAEPCKGLKDAMQAKFFTFLICHAIERYASGYAQKEDTLLWPYYKASVVDKKFQPMSHMDAVELVEMERLKISEHGAGKSRAYREIFPGSNDLFILTVGGTNAKGEDACNDMTDAILEAAKRIRTAEPSIVFRYSKKNREKTLRWVFECIRDGLGYPSIKHDEIGTEQMKEYAKFSLNGNGATDEEAHNWVNVLCMSPGIHGRRKTQKTRSEGGGSIFPAKLLEISLNDGYDWSYADMQLGPKTGDLSSLKSFEDVWEAFRKQYQYAINLCISTKDVSRYFEQRFLQMPFVSAIDDGCMELGMDACALSEQPNGWHNPITTIVAANSLVAIKKLVFEEKKYTLEQLSQALKANWEGFEEMRVDFKRAPKWGNDDDYADGIITRFYEEIIGGEMRKITNYSGGPVMPTGQAVGLYMEVGSRTGPTPDGRFGGEAADDGGISPYMGTDKKGPTAVLRSVSKVQKNQKGNLLNQRLSVPIMRSKHGFEIWNSYMKTWHDLNIDHVQFNVVSTDEMRAAQREPEKHHDLIVRVSGYSARFVDIPTYGQNTIIARQEQDFSASDLEFLNVEI
With B1 the “stoichiometry N” value was 2.
